The target in assay [1] is ST2 receptor on Raw 264.7 cells (mouse (endogenous in Raw 264.7)) (UniProt P14719).
Assay [2] has the same target. This is another data set of the same source.

UniProt P14719, sequence (P14719 27-567): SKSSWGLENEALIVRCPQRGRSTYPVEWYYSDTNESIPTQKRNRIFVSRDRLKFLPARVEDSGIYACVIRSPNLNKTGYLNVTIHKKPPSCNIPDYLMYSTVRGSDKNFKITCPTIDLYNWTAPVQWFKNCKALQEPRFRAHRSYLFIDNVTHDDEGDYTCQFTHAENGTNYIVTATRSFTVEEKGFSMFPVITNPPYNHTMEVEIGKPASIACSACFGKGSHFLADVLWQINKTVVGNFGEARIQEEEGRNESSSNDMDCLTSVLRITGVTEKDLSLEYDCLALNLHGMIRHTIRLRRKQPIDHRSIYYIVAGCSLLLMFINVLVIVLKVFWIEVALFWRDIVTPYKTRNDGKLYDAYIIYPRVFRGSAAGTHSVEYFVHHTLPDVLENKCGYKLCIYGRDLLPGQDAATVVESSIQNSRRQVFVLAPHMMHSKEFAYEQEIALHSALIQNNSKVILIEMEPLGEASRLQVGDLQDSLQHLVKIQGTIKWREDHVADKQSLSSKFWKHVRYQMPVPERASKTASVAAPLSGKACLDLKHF

In assay [1], “immunotoxin IL-33αS (murine IL-33 fused to the ribotoxin α-sarcin) (from UniProt P00655 28-177)” gave a Viability (%) on Raw 264.7 cell line, 1 µM protein, 72 h of 40%. Further, in assay [2], the MTT viability of Raw 264.7 cells, IC50 at 72 h was determined as 300 nM.
